Source: patent publication US20220048996A1 (F STAR BETA, published 2022)

How the values were obtained:
[1] = target: T1, human CD137 expressed on DO11.10 cells (DO11.10-hCD137) (human, UniProt Q07011 24-255); assay: flow cytometry on DO11.10 cells expressing the target, mean ± SD of three experiments
T1 construct: also called CD137 on human T cells
Method: (§1) 50 μl of the antibody dilutions were added to the wells containing cells (final volume 100 μl) and incubated at 4° C. for 1 hour. […] The plates were washed and resuspended in 100 μl of PBS containing DAPI (Biotium, cat no 40043) at 1 μg/ml. The plates were analysed using a Canto II flow cytometer (BD Bioscience) and the data analysed using FlowJo. Dead cells were identified by their higher fluorescence on the UV (405 nm/450/50) channel and excluded from analysis. […] The GMFI data was fit using log (agonist) vs response (three parameters) in Graph Pad Prism Software to generate EC₅₀ values.
(§2) However, in this experiment, instead of using HEK cells to analyse the non-specific binding, non-transduced DO11.10 cells were used. […] The experiment was repeated three times to increase the reliability of the EC₅₀ values calculated.
Target sequence in this assay (Q07011 24-255): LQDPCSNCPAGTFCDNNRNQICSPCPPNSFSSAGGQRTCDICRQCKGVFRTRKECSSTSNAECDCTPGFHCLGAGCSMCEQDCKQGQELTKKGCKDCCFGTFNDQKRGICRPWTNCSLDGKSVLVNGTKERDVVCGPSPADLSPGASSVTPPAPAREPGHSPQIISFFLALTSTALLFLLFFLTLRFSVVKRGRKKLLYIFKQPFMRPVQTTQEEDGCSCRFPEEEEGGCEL

[2] = target: T2, human OX40 expressed on DO11.10 cells (DO11.10-hOX40) (human, UniProt P43489 29-277); assay: as above
T2 construct: Also used here for OX40 on primary human T cells in the functional rows; also called human OX40 receptor; OX40 on human T cells
T2 sequence: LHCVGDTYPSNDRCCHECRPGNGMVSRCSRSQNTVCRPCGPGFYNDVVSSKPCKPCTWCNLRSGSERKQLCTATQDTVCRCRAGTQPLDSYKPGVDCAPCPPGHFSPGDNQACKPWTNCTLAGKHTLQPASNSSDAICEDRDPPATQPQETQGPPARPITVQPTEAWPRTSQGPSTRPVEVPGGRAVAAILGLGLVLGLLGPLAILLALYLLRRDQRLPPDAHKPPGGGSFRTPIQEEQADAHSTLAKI
Method: as §1, §2

[3] = target: T3, cynomolgus OX40 expressed on DO11.10 cells (DO11.10-cOX40) (cynomolgus, UniProt P43489 29-277 (human entry)); assay: as above
T3 chain: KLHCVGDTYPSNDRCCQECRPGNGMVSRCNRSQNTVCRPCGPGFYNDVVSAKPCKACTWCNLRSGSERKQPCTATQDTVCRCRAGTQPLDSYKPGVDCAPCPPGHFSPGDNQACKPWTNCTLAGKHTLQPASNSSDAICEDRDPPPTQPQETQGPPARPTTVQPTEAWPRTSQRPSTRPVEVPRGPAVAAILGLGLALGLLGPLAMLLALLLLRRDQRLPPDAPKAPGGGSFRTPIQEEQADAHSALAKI
Method: as §1, §2

[4] = target: T4, cynomolgus CD137 expressed on DO11.10 cells (DO11.10-cCD137) (cynomolgus monkey, UniProt Q07011 24-255 (human entry)); assay: as above
T4 chain: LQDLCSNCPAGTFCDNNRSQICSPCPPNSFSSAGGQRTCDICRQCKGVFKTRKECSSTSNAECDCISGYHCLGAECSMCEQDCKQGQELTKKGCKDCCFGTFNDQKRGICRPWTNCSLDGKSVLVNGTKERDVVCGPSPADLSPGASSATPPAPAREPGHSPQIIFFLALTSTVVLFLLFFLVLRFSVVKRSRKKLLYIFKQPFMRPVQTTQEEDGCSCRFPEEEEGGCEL
Method: as §1, §2

[5] = target: T1, human CD137 expressed on DO11.10 cells …; assay: cell-based or functional assay
Target sequence in this assay (Q07011 24-255): as the sequence (Q07011 24-255) above

[6] = target: T2, human OX40 expressed on DO11.10 cells …; assay: cell-based or functional assay
[7] = target: T2, human OX40 expressed on DO11.10 cells …; assay: cell-based or functional assay; remark: listed apart in the source
[8] = target: T1, human CD137 expressed on DO11.10 cells …; assay: flow cytometry on DO11.10 cells expressing the target
[9] = target: T2, human OX40 expressed on DO11.10 cells …; assay: as above
[10] = target: T3, cynomolgus OX40 expressed on DO11.10 …; assay: as above
[11] = target: T4, cynomolgus CD137 expressed on DO11.10 …; assay: as above

- EC50 [1]: 0.11 nM
- EC50 [2]: 0.22 nM
- EC50 [3]: 0.71 nM
- EC50 [4]: 0.12 nM
- CD8+ T cell activation assay, hIL-2 release EC50, crosslinked [5]: 1.98 nM
- CD8+ T cell activation assay, hIL-2 release EC50, no crosslinker [5]: 0.118 nM
- CD4+ T cell activation assay, hIL-2 release EC50, crosslinked [6]: 0.0833 nM
- CD4+ T cell activation assay, hIL-2 release EC50, no crosslinker [6]: 0.113 nM
- SEA assay (PBMC), hIL-2 max response, crosslinked [7]: 33800 pg/mL
- SEA assay (PBMC), hIL-2 max response, no crosslinker [7]: 35100 pg/mL
- SEA assay (PBMC), hIL-2 release EC50, crosslinked [7]: 0.1 nM
- SEA assay (PBMC), hIL-2 release EC50, no crosslinker [7]: 0.14 nM
- EC50 [8]: 0.129 nM
- EC50 [9]: 0.157 nM
- EC50 [10]: 0.38 nM
- EC50 [11]: 0.0803 nM
B1: FS20-22-49AA/FS30-10-16 (bispecific antibody, human IgG1, kappa, L234A L235A)
heavy: EVQLLESGGGLVQPGGSLRLSCAASGFTFSSYDMSWVRQAPGKGLEWVSDIDPTGSKTDYADSVKGRFTISRDNSKNTLYLQMNSLRAEDTAVYYCARDLLVYGFDYWGQGTLVTVSSASTKGPSVFPLAPSSKSTSGGTAALGCLVKDYFPEPVTVSWNSGALTSGVHTFPAVLQSSGLYSLSSVVTVPSSSLGTQTYICNVNHKPSNTKVDKKVEPKSCDKTHTCPPCPAPEAAGGPSVFLFPPKPKDTLMISRTPEVTCVVVDVSHEDPEVKFNWYVDGVEVHNAKTKPREEQYNSTYRVVSVLTVLHQDWLNGKEYKCKVSNKALPAPIEKTISKAKGQPREPQVYTLPPSRDEYWDQEVSLTCLVKGFYPSDIAVEWESNGDEQFAYKTTPPVLDSDGSFFLYSKLTVDQYRWNPADYFSCSVMHEALHNHYTQKSLSLSPG
light: EIVLTQSPGTLSLSPGERATLSCRASQSVSSSYLAWYQQKPGQAPRLLIYGASSRATGIPDRFSGSGSGTDFTLTISRLEPEDFAVYYCQQSYSYPVTFGQGTKVEIKRTVAAPSVFIFPPSDEQLKSGTASVVCLLNNFYPREAKVQWKVDNALQSGNSQESVTEQDSKDSTYSLSSTLTLSKADYEKHKVYACEVTHQGLSSPVTKSFNRGEC
notes: IgG1 with LALA; also called OX40/CD137 mAb^2; copies: 2 + 2
